Consider two proteins from publication PMC2132652 (The Journal of Cell Biology, 1997).

This series deals with the molecule itself. As to the kind of experiment: cross-linking.

B1: furin-HA (mouse furin tagged with the HA epitope), expressed stably in RBL cells (enzyme, UniProt P23188 108-793, looked up)
chain: DVYQEPTDPKFPQQWYLSGVTQRDLNVKEAWAQGFTGHGIVVSILDDGIEKNHPDLAGNYDPGASFDVNDQDPDPQPRYTQMNDNRHGTRCAGEVAAVANNGVCGVGVAYNARIGGVRMLDGEVTDAVEARSLGLNPNHIHIYSASWGPEDDGKTVDGPARLAEEAFFRGVSQGRGGLGSIFVWASGNGGREHDSCNCDGYTNSIYTLSISSATQFGNVPWYSEACSSTLATTYSSGNQNEKQIVTTDLRQKCTESHTGTSASAPLAAGIIALTLEANKNLTWRDMQHLVVQTSKPAHLNADDWATNGVGRKVSHSYGYGLLDAGAMVALAQNWTTVAPQRKCIVEILVEPKDIGKRLEVRKAVTACLGEPNHITRLEHVQARLTLSYNRRGDLAIHLISPMGTRSTLLAARPHDYSADGFNDWAFMTTHSWDEDPAGEWVLEIENTSEANNYGTLTKFTLVLYGTAPEGLSTPPESSGCKTLTSSQACVVCEEGYSLHQKSCVQHCPPGFIPQVLDTHYSTENDVEIIRASVCTPCHASCATCQGPAPTDCLSCPSHASLDPVEQTCSRQSQSSRESRPQQQPPALRPEVEMEPRLQAGLASHLPEVLAGLSCLIIVLIFGIVFLFLHRCSGFSFRGVKVYTMDRGLISYKGLPPEAWQEECPSDSEEDEGRGERTAFIKDQSAL
As for B1, the “stoichiometry N” value came to 2.

B2: furin-FLAG (mouse furin tagged with the FLAG epitope), expressed stably in RBL cells (enzyme)
chain: DVYQEPTDPKFPQQWYLSGVTQRDLNVKEAWAQGFTGHGIVVSILDDGIEKNHPDLAGNYDPGASFDVNDQDPDPQPRYTQMNDNRHGTRCAGEVAAVANNGVCGVGVAYNARIGGVRMLDGEVTDAVEARSLGLNPNHIHIYSASWGPEDDGKTVDGPARLAEEAFFRGVSQGRGGLGSIFVWASGNGGREHDSCNCDGYTNSIYTLSISSATQFGNVPWYSEACSSTLATTYSSGNQNEKQIVTTDLRQKCTESHTGTSASAPLAAGIIALTLEANKNLTWRDMQHLVVQTSKPAHLNADDWATNGVGRKVSHSYGYGLLDAGAMVALAQNWTTVAPQRKCIVEILVEPKDIGKRLEVRKAVTACLGEPNHITRLEHVQARLTLSYNRRGDLAIHLISPMGTRSTLLAARPHDYSADGFNDWAFMTTHSWDEDPAGEWVLEIENTSEANNYGTLTKFTLVLYGTAPEGLSTPPESSGCKTLTSSQACVVCEEGYSLHQKSCVQHCPPGFIPQVLDTHYSTENDVEIIRASVCTPCHASCATCQGPAPTDCLSCPSHASLDPVEQTCSRQSQSSRESRPQQQPPALRPEVEMEPRLQAGLASHLPEVLAGLSCLIIVLIFGIVFLFLHRCSGFSFRGVKVYTMDRGLISYKGLPPEAWQEECPSDSEEDEGRGERTAFIKDQSAL
Consider B2, for which the “stoichiometry N” value is 2.

Broadly, the stoichiometry N is the number of molecules, sites or subunits per partner or assembly.
